Tested on: ZFN 30035 (AAVS1) (synthetic)
Experiment: cell_activity
Settings: pair 30035:30054 in CD34+ cells, higher AAV6 donor dose, ZFN mRNA 40 ug/ml

Question: With “CCCCACTGTGGGGTGGAGGGGACAGATA (double strand) [AAVS1 30035 target]” as the sequence, how does the activity (% targeted integration) read?
Answer: > 50

Source: US20180216136
